From patent publication US20190142868A1, “METHODS OF TREATING DISEASES ASSOCIATED WITH ILC3 CELLS” (Instituto de Medicina Moleccular, priority 2016, published 2019)

B1: IL-33: recombinant protein from R&D Systems (3626ML), alarmin (protein, UniProt Q8BVZ5 1-266, looked up)
Interleukin-33: MRPRMKYSNSKISPAKFSSTAGEALVPPCKIRRSQQKTKEFCHVYCMRLRSGLTIRKETSYFRKEPTKRYSLKSGTKHEENFSAYPRDSRKRSLLGSIQAFAASVDTLSIQGTSLLTQSPASLSTYNDQSVSFVLENGCYVINVDDSGKDQEQDQVLLRYYESPCPASQSGDGVDGKKLMVNMSPIKDTDIWLHANDKDYSVELQRGDVSPPEQAFFVLHKKSSDFVSFECKNLPGTYIGVKDNQLALVEEKDESCNNIMFKLSKI
B2: IL-1β: recombinant protein from R&D Systems (401ML005), alarmin (protein, UniProt P10749 118-269, looked up)
Interleukin-1 beta: VPIRQLHYRLRDEQQKSLVLSDPYELKALHLNGQNINQQVIFSMSFVQGEPSNDKIPVALGLKGKNLYLSCVMKDGTPTLQLESVDPKQYPKKKMEKRFVFNKIEVKSKVEFESAEFPNWYISTSQAEHKPVFLGNNSGQDIIDFTMESVSS
B3: GDNF: Glial cell-derived neurotrophic factor, a GFRα1 ligand (protein, UniProt P39905 78-211, looked up)
Glial cell line-derived …: SPDKQMAVLPRRERNRQAAAANPENSRGKGRRGQRGKNRGCVLTAIHLNVTDLGLGYETKEELIFRYCSGSCDAAETTYDKILKNLSRNRRLVSDKVGQACCRPIAFDDDLSFLDDNLVYHILRKHSAKRCGCI

Tests used:
RET = settings: cited from earlier work; for RET autophosphorylation: Tokugawa et al. 2003 (XIB4035, GDNF), Akeno-Stuart et al. 2007 (AST 487)
[1] = tested on: neurosphere-derived glial cells; experiment: Activation of neurosphere-derived glial cells, alone or co-cultured with ILC3; type: cell-based, mice; settings: for innate Il22 in ILC3 co-cultured with glial cells: 24 hours of co-culture, MYD88 dependent; for GFL expression in glial cells: activation of neurosphere-derived glial cells
Experimental: Neurosphere-derived glial cells were obtained as previously described^60. Briefly, total intestines from E14.5 C57BL/6J and Myd88^−/− mice were digested with collagenase D (0.5 mg/mL; Roche) and DNase I (0.1 mg/mL; Roche) in DMEM/F-12, GlutaMAX, supplemented with 1% hepes, streptomycin/penicillin and 0.1% β-mercaptoethanol (Gibco) for approximately 30 minutes at 37° C. under gentle agitation. Cells were cultured during 1 week in a CO2 incubator at 37° C. in DMEM/F-12, GlutaMAX™, streptomycin and penicillin and 0.1% P3-mercaptoethanol (Gibco) supplemented with B27 (Gibco), EGF (Gibco) and FGF2 (Gibco) 20 ng/mL. After 1 week of culture cells were treated with 0.05% trypsin (Gibco), transferred into PDL (Sigma-Aldrich) coated plates and culture in DMEM supplemented with 10% FBS, 1% hepes, glutamine, streptomycin and penicillin and 0.1% β-mercaptoethanol (Gibco) until confluence. Glial cells were activated with TLR2 (5 μg/ml) (Pam3CSK4), TLR3 ([…]) (PolyI:C), TLR4 (50 ng/ml) (LPS), TLR9 ([…]) (DsDNA-EC) ligands from Invivogen and IL-1β (10 ng/mL) (401ML005), IL-18 (50 ng/mL) (B002-5), IL-33 (0.1 ng/mL) (3626ML) recombinant proteins from R&D Systems. Cells were also co-cultured with purified ILC3 from WT and Illb deficient mice. IL-22 expression in glial-ILC3 co-cultures upon TLR4 activation was also performed using GDNF ([…]) (AB-212-NA), NRTN ([…]) (AF-387sp) and ARTN (0.3 μg/mL) (AF-1085-sp) blocking antibodies. Cells were analysed after 24 hours of co-culture.

Row | Molecule | activation of downstream effectors of RET (RET; Akeno-Stuart et al. 2007) | RET autophosphorylation (RET) | innate Il22 in ILC3 co-cultured with glial cells [1] | GFL expression in glial cells [1]
1 | CCN1CCN(Cc2ccc(NC(=O)Nc3ccc(Oc4cc(NC)ncn4)cc3)cc2C(F)(F)F)CC1 [AST 487, 1-[4-[(4-ethylpiperazin-1-yl)methyl]-3-(trifluoromethyl)phenyl]-3-[4-[6-(methylamino)pyrimidin-4-yl]oxyphenyl]urea] | inhibit | inhibit | – | –
2 | CCN(CC)CCCC(C)Nc1cc(/C=C/c2ccccc2Cl)nc2cc(Cl)ccc12 (centres unmarked) [XIB4035, N(4)-(7-chloro-2-[(E)-2-(2-chloro-phenyl)-vinyl]-quinolin-4-yl)-N(1),N(1)-diethyl-pentane-1,4-diamine] | – | induced | – | –
3 | B1 | – | – | induced robust | efficiently controlled
4 | B2 | – | – | induced robust | efficiently controlled
5 | B3 | – | induced | – | –
